Data from patent publication US20250381307A1, “RETRO-AAV AND USE IN TREATING NEURODEGENERATIVE DISEASES” (priority 2023, published 2025).
Residue numbers refer to the chain shown, from its start. Names and notes keep the numbering of the source.

B1: G88P3: 1395-bp shortened derivative of G88P2 promoter (SEQ ID NO: 45) (nucleic acid, listed as Homo sapiens)
DNA: TCTAGATGTACCACTGACATCTGCTTTAAATCTTTTGCCCATTTCATTTTTACCCTCTAACCATTTCATTACTAAAACACAAAACAAACTCCGGAAAGGAGTTTGTTGATGAGAAAACACTGAAAGTACGATTTAAATTGAGGAATGGAGATTTTCTGTGGATAATTGTCTATGTTCCACTTTACCAAAGAAAAATGAATTTCAAGTAGTGCATAAAGTAATTCTCGTTAAAAAATGTGGGAATAAAGAGATCAGTCCTGGGTACTGGGAATATATTTATCTCACAGAAAAATCTTGCCCACAAAATGCATCAGACTGAGATGAAATACTCTAGGGTATATTAAATTTTATTCTAATATTGAAGGGAGGGAAAAAAAGGACGGAAAGAAAAATGAAACAGGATGAAAAATAAGGTGATTGGGAGAGAGAAAAGACAGAGAAACTTGTTAACGACAGGACTTTCTGAGCAAGATATTTTTCTTCCTTTTACAAGTTGGAAGCTATTGAATAATTCATGCCAAGCGTGGAAAGGCTGTCTTTTCCCTGGATGATGTATAACTAAGCAGGAGAGAGCTTCGAGTGGGTTCACCACATCAGCCACCACTCCTGCTTCTGAGCACAGGGTGCTCTCCTCTTGAGCTCAGCTTCTGCTTTTGCAGCCAAGCATTCTTGCTGCTGCTGCCTGCCTGCCCACCCGCCTGGGCTTGCAGCCCGCCACTTTACTTTCTCCAGCCCTGATACCAGCTGAGAAGTCTCCCTGCAGCTGCTAGTTCCTGCCCAGGACCATGTGTGTGGATGCTGCTTGGGAGAAGCGGGCACTTGCTCCTGGCACTGATCCCAGCTGAGTTTCTCCTGTTGATTTCTGGACCACTGATGCTGTTGCTGAGGAGGTATTTCCCGGCATCCCTCCCCCTGAGACACCGGCTAAGGACCAGCCTAAACGCAAGGTAACCTTCACCTCTTTCCCATGGGATTTTCCCCAGCTGGGATATCTCTGCTTTCTCCTGGAACTAGGTCCTCCAGCTGGCAACATATCTCTCTCTCTCTCTCTCTCTCTCTCTCTCTCTCTCTGTGTGTGTGTGTGTGTGTTGGGGGAGAAGAGGAGACTGTTTTAGGTATTGCTCTGTCCTAGGGCTTCCCCGATACCTGCTGAATCCAATGCAAAGTGGCCTTTCCCCTGGCTCTGGAGACATTTCCGAGGCAGGCACCTGTCATTTGCCACCCCCGTCCTCCTCCTCGAGCTCCCTTTCTCCCCCTCCCCCAGCCCATTATTCTGCTTCAGCCTTTTGTGTCAGTGGCAGAGGGCTGAAGGGATGTCTTTGCCCTTCTGGCAGGCAGGACAGTGTCAGGATGGACCGCGCTGCCAGAAGCCGACGCTAGCGAGGGAGGTGTGAA
B2: AAV8R10: AAV8R capsid mutant V125I + A606S (SEQ ID NO: 11) (protein)
chain: MAADGYLPDWLEDNLSEGIREWWALKPGAPKPKANQQKQDDGRGLVLPGYKYLGPFNGLDKGEPVNAADAAALEHDKAYDQQLQAGDNPYLRYNHADAEFQERLQEDTSFGGNLGRAVFQAKKRILEPLGLVEEGAKTAPGKKRPVEPSPQRSPDSSTGIGKKGQQPARKRLNFGQTGDSESVPDPQPLGEPPAAPSGVGPNTMAAGGGAPMADNNEGADGVGSSSGNWHCDSTWLGDRVITTSTRTWALPTYNNHLYKQISNGTSGGATNDNTYFGYSTPWGYFDFNRFHCHFSPRDWQRLINNNWGFRPKRLSFKLFNIQVKEVTQNEGTKTIANNLTSTIQVFTDSEYQLPYVLGSAHQGCLPPFPADVFMIPQYGYLTLNDGSQAVGRSSFYCLEYFPSQMLRTGNNFQFTYTFEDVPFHSSYAHSQSLDRLMNPLIDQYLYYLSRTQTTGGTANTQTLGFSQGGPNTMANQAKNWLPGPCYRQQRVSTTTGQNNNSNFAWTAGTKYHLNGRNSLANPGIAMATHKDDEERFFPSNGILIFGKQNAARDNADYSDVMLTSEEEIKTTNPVATEEYGIVADNLQRGNLADQDYTKTARQAATSDVNSQGALPGMVWQNRDVYLQGPIWAKIPHTDGNFHPSPLMGGFGLKHPPPQILIKNTPVPADPPTTFNQSKLNSFITQYSTGQVSVEIEWELQKENSKRWNPEIQYTSNYYKSINVDFAVNTEGVYSEPRPIGTRYLTRNL
B3: AAV8R2: AAV8R capsid mutant N411S (SEQ ID NO: 3) (protein)
chain: B2 chain with I125V, N411S, S606A
B4: AAV8R11: AAV8R capsid mutant V125I + T495A (SEQ ID NO: 12) (protein)
chain: B2 chain with T495A, S606A
B5: AAV8R13: AAV8R capsid mutant V125I + F536Y + T495A (SEQ ID NO: 14) (protein)
chain: B2 chain with T495A, F536Y, S606A
B6: AAV8R3: AAV8R capsid mutant Y447F (SEQ ID NO: 4) (protein)
chain: B2 chain with I125V, Y447F, S606A
B7: AAV8R1: AAV8R capsid mutant V183E (SEQ ID NO: 2) (protein)
chain: B2 chain with I125V, V183E, S606A
B8: AAV8R14: AAV8R capsid mutant V125I + A606S + T495A (SEQ ID NO: 15) (protein)
chain: B2 chain with T495A
B9: G88P7: 896-bp shortened derivative of G88P2 promoter (SEQ ID NO: 46) (nucleic acid, listed as Homo sapiens)
DNA: ATGCCAAGCGTGGAAAGGCTGTCTTTTCCCTGGATGATGTATAACTAAGCAGGAGAGAGCTTCGAGTGGGTTCACCACATCAGCCACCACTCCTGCTTCTGAGCACAGGGTGCTCTCCTCTTGAGCTCAGCTTCTGCTTTTGCAGCCAAGCATTCTTGCTGCTGCTGCCTGCCTGCCCACCCGCCTGGGCTTGCAGCCCGCCACTTTACTTTCTCCAGCCCTGATACCAGCTGAGAAGTCTCCCTGCAGCTGCTAGTTCCTGCCCAGGACCATGTGTGTGGATGCTGCTTGGGAGAAGCGGGCACTTGCTCCTGGCACTGATCCCAGCTGAGTTTCTCCTGTTGATTTCTGGACCACTGATGCTGTTGCTGAGGAGGTATTTCCCGGCATCCCTCCCCCTGAGACACCGGCTAAGGACCAGCCTAAACGCAAGGTAACCTTCACCTCTTTCCCATGGGATTTTCCCCAGCTGGGATATCTCTGCTTTCTCCTGGAACTAGGTCCTCCAGCTGGCAACATATCTCTCTCTCTCTCTCTCTCTCTCTCTCTCTCTCTCTCTCTGTGTGTGTGTGTGTGTGTTGGGGGAGAAGAGGAGACTGTTTTAGGTATTGCTCTGTCCTAGGGCTTCCCCGATACCTGCTGAATCCAATGCAAAGTGGCCTTTCCCCTGGCTCTGGAGACATTTCCGAGGCAGGCACCTGTCATCTGCCACCCCCGTCCTCCTCCTCGAGCTCCCTTTCTCCCCCTCCCCCAGCCCATTATTCTGCTTCAGCCTTTTGTGTCAGTGGCAGAGGGCTGAAGGGATGTCTTTGCCCTTCTGGCAGGCAGGACAGTGTCAGGATGGACCGCGCTGCCAGAAGCCGACGCTAGCGAGGGAGGTGTGAAGAGTTGGCCAG

How the values were obtained:
[1] = test system: striatonigral projection neurons (striatal MSNs); assay: Retrograde labeling of striatal MSNs after AAV injection into the SNr (EYFP+ cell counting); format: in vivo, mice; conditions: for Activity Level STR: striatum, numbers of YFP-expressing neurons per animal; for reporter-labeled MSNs by promoter (FIG. 4B): SNr injection, n=3 mice, mean±SEM; for labeled MSNs per mouse: viruses expressing EYFP, injection into the SNr (FIG. 4B); for Labeling Efficiency in Striatonigral Pathway: AAV8R capsid mutants, numbers of labeled neurons per animal
Excerpt: (§1) Brain profiles of two epigenetic marks for enhancers and promoters, monomethylation of histone H3 lysine 4 (H3K4me1) and acetylation of histone H3 lysine 27 (H3K27ac) were checked and approximately 2 kilobase-long sequences around the transcriptional start site (TSS) that have high levels of H3K4me1 and/or H3K27ac were identified in mouse brain. Homologous sequences at equivalent positions of the human genome were then cloned onto an AAV backbone, and the activity of the homologous sequences in directing reporter expression was tested in mice after injections of AAVs into the SNr (FIG. 3A-C, TABLE 3).
(§2) Mice were anesthetized with sodium pentobarbital (Nembutal; 80 mg/kg, i.p.), and then placed into a stereotaxic device (KOPF). Eye cream was applied on both corneas to avoid dehydration. The skull above the targeted areas was thinned with a dental drill and carefully removed. Injections were conducted with a 10 μL syringe connected to a 33-Gauge needle (Neuros; Hamilton), using a microsyringe pump (Legato 130, KD Scientific). A total volume of 200 nL virus was injected into the SNr at a speed of 20 nL/min. The coordinates for the SNr were 3.4 mm posterior, 1.3 mm lateral, 4.8 mm ventral to the bregma.
(§3) Images were acquired using a confocal microscope (Carl Zeiss, LSM880) and an Axiolmager.Z1 microscope with apotome (Carl Zeiss). Brain structures were identified microscopically and in digital photos using a mouse brain atlas. To analyze the number of EYFP+ cells in the striatum, slices from rostral to caudal striatum were used. Every sixth section was analyzed, and numbers of EYFP+ cells were multiplied by six to acquire the approximate total number and mean number of cells per animal. Images were processed using ImageJ (NIH, USA), and final quantifications were independently performed manually by two blinded experimenters.

substantia nigra = assay: Promoter activity level in substantia nigra after AAV injection into the SNr; format: in vivo, mice; conditions: numbers of YFP-expressing neurons per animal
Excerpt: as §1, §2, §3

Molecule	Activity Level STR [1]	Activity Level SN (substantia nigra)	reporter-labeled MSNs by promoter (FIG. 4B) [1]	labeled MSNs per mouse [1]	Labeling Efficiency in Striatonigral Pathway [1]
R9P1: tested promoter from gene RGS9, 2152 bp (SEQ ID NO: 47)	+++ (10k-25k)	+ (<5k)	–	–	–
G88P2: 2259-bp promoter from the gene GPR88 (SEQ ID NO: 44)	++++ (>25k)	+ (<5k)	36290±3705	–	–
B1	++++ (>25k)	+ (<5k)	37026±6646	3.7±0.66 ×104 MSNs per mouse	–
B2	–	–	–	–	+ (<5k)
B3	–	–	–	–	+ (<5k)
B4	–	–	–	–	+ (<5k)
B5	–	–	–	–	++ (5k-10k)
B6	–	–	–	–	+ (<5k)
B7	–	–	–	–	+ (<5k)
B8	–	–	–	–	++ (5k-10k)
B9	++++ (>25k)	+ (<5k)	39460±7281	3.95±0.73 ×104 MSNs per mouse	–
